From article PMC6050537, “Inhibition of low-density lipoprotein receptor degradation with a cyclic peptide that disrupts the homodimerization of IDOL E3 ubiquitin ligase† †Electronic supplementary information (ESI) available. See DOI: 10.1039/c8sc01186a” (Chemical Science, 2018)

Experiments:
[1] = biological target: T1, Full length IDOL (1–445) (UniProt Q8WY64 1-445, NT-647-NHS dye (only the labelled copy in the MST assays)); assay: cell-based or functional assay
[2] = biological target: T1, Full length IDOL (1–445); assay: MST; Monolith NT.115; 6× His IDOL labelled with NT-647-NHS dye at 50 nM, peptides titrated; 10 mM HEPES, 300 mM NaCl, 1 mM TCEP, 0.05% TWEEN-20, pH 8.0, 5% DMSO; details: both partners purified

EC50 of Tat-RINGPep2 (0–35 μM) on LDLR protein levels in HepG2 cells; blocks IDOL homodimerization [1]: 15 to 20 µM | Kd [2]: 4.6 µM
B1: RINGPep2 (cyclo-CF-Cha-LYT) (peptide)
chain: CFXLYT
HELM: PEPTIDE1{C.F.[Cha].L.Y.T}$PEPTIDE1,PEPTIDE1,1:R1-6:R2$$$V2.0
SMILES: CC(C)C[C@@H]1NC(=O)[C@H](CC2CCCCC2)NC(=O)[C@H](Cc2ccccc2)NC(=O)[C@H](CS)NC(=O)[C@H]([C@@H](C)O)NC(=O)[C@H](Cc2ccc(O)cc2)NC1=O
